# In patent US20240165165A1, “PHARMACEUTICAL COMPOSITIONS AND THEIR METHODS OF USE” (The Trustees of Indiana University, priority 2021, published 2024):
# B1: CXCL5: chemokine applied to EO771 cells (protein, UniProt P50228 41-132, looked up)
# C-X-C motif chemokine 5: APSSVIAATELRCVCLTVTPKINPKLIANLEVIPAGPQCPTVEVIAKLKNQKEVCLDPEAPVIKKIIQKILGSDKKKAKRNALAVERTASVQ
# B2: HSF1: HSF1 recombinant proteins (protein, UniProt P38532 1-525, looked up)
# Heat shock factor protein 1: MDLAVGPGAAGPSNVPAFLTKLWTLVSDPDTDALICWSPSGNSFHVFDQGQFAKEVLPKYFKHNNMASFVRQLNMYGFRKVVHIEQGGLVKPERDDTEFQHPCFLRGQEQLLENIKRKVTSVSTLKSEDIKIRQDSVTRLLTDVQLMKGKQECMDSKLLAMKHENEALWREVASLRQKHAQQQKVVNKLIQFLISLVQSNRILGVKRKIPLMLSDSNSAHSVPKYGRQYSLEHVHGPGPYSAPSPAYSSSSLYSSDAVTSSGPIISDITELAPTSPLASPGRSIDERPLSSSTLVRVKQEPPSPPHSPRVLEASPGRPSSMDTPLSPTAFIDSILRESEPTPAASNTAPMDTTGAQAPALPTPSTPEKCLSVACLDKNELSDHLDAMDSNLDNLQTMLTSHGFSVDTSALLDLFSPSVTMPDMSLPDLDSSLASIQELLSPQEPPRPIEAENSNPDSGKQLVHYTAQPLFLLDPDAVDTGSSELPVLFELGESSYFSEGDDYTDDPTISLLTGTEPHKAKDPTVS
# B3: ANXA6: annexin A6 (protein, UniProt P14824 2-673, looked up)
# Annexin A6: AKIAQGAMYRGSVHDFPEFDANQDAEALYTAMKGFGSDKESILELITSRSNKQRQEICQNYKSLYGKDLIEDLKYELTGKFERLIVNLMRPLAYCDAKEIKDAISGVGTDEKCLIEILASRTNEQMHQLVAAYKDAYERDLESDIIGDTSGHFQKMLVVLLQGTRENDDVVSEDLVQQDVQDLYEAGELKWGTDEAQFIYILGNRSKQHLRLVFDEYLKTTGKPIEASIRGELSGDFEKLMLAVVKCIRSTPEYFAERLFKAMKGLGTRDNTLIRIMVSRSELDMLDIREIFRTKYEKSLYSMIKNDTSGEYKKALLKLCGGDDDAAGQFFPEAAQVAYQMWELSAVSRVELKGTVCAANDFNPDADAKALRKAMKGIGTDEATIIDIVTHRSNAQRQQIRQTFKSHFGRDLMADLKSEISGDLARLILGLMMPPAHYDAKQLKKAMEGAGTDEKTLIEILATRTNAEIRAINEAYKEDYHKSLEDALSSDTSGHFRRILISLATGNREEGGENRDQAQEDAQVAAEILEIADTPSGDKTSLETRFMTVLCTRSYPHLRRVFQEFIKKTNYDIEHVIKKEMSGDVKDAFVAIVQSVKNKPLFFADKLYKSMKGAGTDEKTLTRVMVSRSEIDLLNIRREFIEKYDKSLHQAIEGDTSGDFMKALLALCGGED
# B4: Calr: recombinant calreticulin (protein, UniProt P14211 18-416, looked up)
# Calreticulin: DPAIYFKEQFLDGDAWTNRWVESKHKSDFGKFVLSSGKFYGDLEKDKGLQTSQDARFYALSAKFEPFSNKGQTLVVQFTVKHEQNIDCGGGYVKLFPSGLDQKDMHGDSEYNIMFGPDICGPGTKKVHVIFNYKGKNVLINKDIRCKDDEFTHLYTLIVRPDNTYEVKIDNSQVESGSLEDDWDFLPPKKIKDPDAAKPEDWDERAKIDDPTDSKPEDWDKPEHIPDPDAKKPEDWDEEMDGEWEPPVIQNPEYKGEWKPRQIDNPDYKGTWIHPEIDNPEYSPDANIYAYDSFAVLGLDLWQVKSGTIFDNFLITNDEAYAEEFGNETWGVTKAAEKQMKDKQDEEQRLKEEEEDKKRKEEEEAEDKEDDDDRDEDEDEEDEKEEDEEESPGQAKDEL
# Legend:
# EO771 cells = assay: Western blot of proteins in treated tumor cells; type: cell-based, mouse
# Procedure: Western blot analysis and mass spectrometry. Western blot analysis was conducted using known procedures. Antibodies were used against ANXA1, β-catenin, caspase 3, Lrp5, Lrp6, Runx2, Sclerostin, Snail, TGFβ, NFATc1, cathepsin K (Cell Signaling, Danvers, MA, USA), DMP1, ANXA6, CXCL5 (Abcam, Cambridge, MA, USA), M-CSF, MMP9, OPN, TPM4 (Santa Cruz, Dallas, TX, USA), WISP1 (R&D systems, Minneapolis, MN, USA), β-actin (Sigma, Saint Louis, MO, USA), LIMA1, Trail (Novus, Centennial, CO, USA), p53 and CXCL1 (Invitrogen, Carlsbad, California, USA), and DSP (ProteinTech, Rosemont, IL, USA). The expression levels of Sclerostin and Lrp5 in CM were detected by ELISA (My BioSource, San Diego, CA, USA). Proteins from A5 osteocyte CM, Y4 osteocyte CM, and osteoclast control CM (RAW264.7 cells) were analyzed by the HF Hybrid Quadrupole Orbitrap mass spectrometry. Among 549 identified proteins, 49 proteins presented higher expression levels in A5 CM than Y4 CM and control CM. Among them, 11 proteins (p53; SPARC=osteonectin; TPM1, TPM4=tropomyosin 1 & 4; ANXA1, ANXA6=annexin A1 & A6; FMOD=fibromodulin; OGN=osteoglycin; DSP=desmoplakin; AHNAK=desmoyokin; and LIMA1=[…] domain actin-binding protein 1) were identified as potential tumor suppressors.
# (§1) Western blot analysis and protein array analysis. Western blot analysis was conducted using the procedure previously described. Antibodies against Lrp5, Runx2, Snail, TGFβ, sclerostin, Calr, p-eIF2α, eIF2α (Cell Signaling, Danvers, MA, USA), LIF, Trail (Novus Biologicals, Centennial, CO, USA), MMP9, NFATc1, cathepsin K (Santa Cruz Biotechnology, Dallas, TX, USA), p53, CXCL2, Ppib (Invitrogen, Carlsbad, CA, USA), Hsp90ab1 (Abcam, Cambridge, UK), and β-actin (Sigma, Saint Louis, MO, USA) were used. A proteome profiler mouse XL cytokine array kit (R&D Systems, Minneapolis, MN, USA) was also employed, and the expression of 111 cytokines and chemokines in MSC-derived CM was determined.
# Spheroid assay, plasmid transfection, and Western blot analysis. […]
# [1] = test system: 4T1.2 mammary tumor cells; assay: MTT viability assay; type: cell-based, mouse
# From the text: (§2) In vitro assays. Cellular viability was examined using an MTT assay (Invitrogen, Carlsbad, CA, USA) with the procedure previously described, as well as an EdU assay with a fluorescence-based cell proliferation kit (Thermo-Fisher, Waltham, MA, USA). The recombinant proteins employed included Filamin A, Pkm, Pdia3, Tpm4, Anxa2, Eef1a1, Cts1, Nme2, Dcn, Calr, Aldoa, Calm1, Tpm3, Ppib, Myh9, Ywhae, Hspa5, Hsp90aa1 (MBS962910, MBS8249600, MBS2010131, MBS145304, MBS2009095, MBS2033168, MBS143355, MBS145412, MBS2557309, MBS2009125, MBS8248528, MBS2018713, MBS144696, MBS2009092, MBS717396, MBS143242, MBS806904, MBS142709; MyBioSource, San Diego, CA, USA), Actin Gamma 1, Actn4, Hspa8, Vimentin (H00000071-P01, H00000081-P01, NBP1-30278, NBP2-35139; Novus, Littleton, CO, USA), and Hsp90ab1 (OPCA05157; Aviva system biology, San Diego, CA, USA). A TRANSWELL® chamber assay was conducted to detect invasive cellular motility, and a wound-healing scratch assay was utilized to evaluate 2-dimensional migratory behavior. The overexpression of Akt, Lrp5, β-catenin, Snail, Calr, and Ppib was conducted by transfecting plasmids (#10841, #115907, #31785, #31697, #51161, #36123; Addgene, Cambridge, MA, USA). […]
# [2] = test system: tumor cells (MDA-MB-231, 4T1.2, EO771) vs non-tumor cells (MSCs, MLO-A5 osteocytes); assay: MTT-based tumor selectivity (MSC CMs, Calr, Ppib); type: cell-based; details: (reduction in MTT viability of tumor cells)/(reduction in non-tumor cells)
# Procedure: Tumor-selective inhibition by MSC CMs and Calr. […] The inhibitory ratio was defined sing MTT-based viability as (reduction in MTT-based viability of tumor cells)/(reduction in MTT-based viability of non-tumor cells). […] Using three tumor cells (MDA-MB-231, 4T1.2, and EO771) and two non-tumor cells (MSCs, and MLO-A5 osteocytes), tumor selectivity for Lrp5 CM, Akt CM, Calr, and Ppib (FIG. 22) was determined. […] Akt CM also presented the tumor selectivity of 2.41±0.70.
# 4T1.2 cells = assay: Western blot of proteins in treated tumor cells; type: cell-based, mouse
# Procedure: as §1
# [3] = test system: 4T1.2 mammary tumor cells; assay: EdU proliferation assay; type: cell-based, mouse
# Procedure: EdU assay. Approximately 2,000 cells were seeded in 96-well plates on day 1. CM was added on day 2 and cellular proliferation was examined using a fluorescence-based cell proliferation kit (CLICK-IT™ EDU ALEXA FLUOR™ 488 Imaging Kit; Thermo-Fisher, Waltham, MA, USA) on day 4. After fluorescent labeling, the number of fluorescently labeled cells was counted and the ratio to the total number of cells was determined.
# as §2, with “USA).” for “USA). A TRANSWELL® chamber assay was conducted to detect invasive cellular motility, and a wound-healing scratch assay was utilized to evaluate 2-dimensional migratory behavior. The overexpression of Akt, Lrp5, β-catenin, Snail, Calr, and Ppib was conducted by transfecting plasmids (#10841, #115907, #31785, #31697, #51161, #36123; Addgene, Cambridge, MA, USA).”
# [4] = test system: 4T1.2 mammary tumor cells; assay: TRANSWELL invasion assay; type: cell-based, mouse
# From the text: as §2
molecule,measurement,setting,value
B1,"tumor-promoting/tumorigenic proteins (Lrp5, MMP9, Runx2, TGFβ, Snail, IL1β etc.) in EO771 cells",EO771 cells,increased
B2,MTT-based viability of 4T1.2 cells,[1],reduced
B3,"tumor-promoting/tumorigenic proteins (Lrp5, MMP9, Runx2, TGFβ, Snail, IL1β etc.) in EO771 cells",EO771 cells,reduced
B4,MTT-based viability of 4T1.2 cells,[1],Significant reduction
same,tumor selectivity,[2],higher tumor selectivity than Ppib
same,phosphorylation level of eIF2α in 4T1.2 cells,4T1.2 cells,elevated
same,"tumor-promoting genes (Lrp5, MMP9, Runx2, TGFβ, Snail) in 4T1.2 cells",4T1.2 cells; Western blot,suppressed
same,EdU-based proliferation of 4T1.2 cells,[3],significantly inhibited
same,TRANSWELL invasion of 4T1.2 cells,[4],significantly inhibited
